Data taken from patent US20220332812A1, “TREATMENT METHODS FOR EYE DISORDERS” (University of Pittsburgh - of the Commonwealth System of …, priority 2019, published 2022).

Columns and labels:
diabetic Nuc1 rats = assay: retinal function by electroretinography (ERG) in diabetic Nuc1 rats; type: in vivo, rat; conditions: FIGS. 20A-20B
Source text: Therefore, βA1-crystallin is a first of its kind inhibitor that can be used as a therapy for DR.

PTP1B [1] = target: T1, PTP1B (Rattus norvegicus, UniProt P20417); assay: co-immunoprecipitation in astrocytes; conditions: wild-type astrocytes; binding lost in Nuc1 cells
T1 construct: endogenous in cells; host or cells: astrocytes from wild-type and Nuc1 rats
T1 sequence (P20417 1-432): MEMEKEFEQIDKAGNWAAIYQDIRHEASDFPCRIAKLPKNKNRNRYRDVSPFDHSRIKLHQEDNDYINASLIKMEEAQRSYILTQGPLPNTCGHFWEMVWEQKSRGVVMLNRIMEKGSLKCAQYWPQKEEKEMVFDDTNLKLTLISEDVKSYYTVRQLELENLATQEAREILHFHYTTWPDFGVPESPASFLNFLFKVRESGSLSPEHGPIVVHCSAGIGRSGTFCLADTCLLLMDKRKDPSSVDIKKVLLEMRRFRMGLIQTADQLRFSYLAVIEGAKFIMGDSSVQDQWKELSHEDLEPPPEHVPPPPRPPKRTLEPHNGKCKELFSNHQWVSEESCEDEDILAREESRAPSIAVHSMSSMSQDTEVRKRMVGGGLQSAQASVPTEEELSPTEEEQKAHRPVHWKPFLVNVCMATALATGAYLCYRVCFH

PTP1B [2] = target: T2, PTP1B (Homo sapiens, UniProt P18031); assay: PTP activity kinetics, Lineweaver Burk plots; type: biochemical; conditions: FIG. 13
T2 sequence (P18031 1-435): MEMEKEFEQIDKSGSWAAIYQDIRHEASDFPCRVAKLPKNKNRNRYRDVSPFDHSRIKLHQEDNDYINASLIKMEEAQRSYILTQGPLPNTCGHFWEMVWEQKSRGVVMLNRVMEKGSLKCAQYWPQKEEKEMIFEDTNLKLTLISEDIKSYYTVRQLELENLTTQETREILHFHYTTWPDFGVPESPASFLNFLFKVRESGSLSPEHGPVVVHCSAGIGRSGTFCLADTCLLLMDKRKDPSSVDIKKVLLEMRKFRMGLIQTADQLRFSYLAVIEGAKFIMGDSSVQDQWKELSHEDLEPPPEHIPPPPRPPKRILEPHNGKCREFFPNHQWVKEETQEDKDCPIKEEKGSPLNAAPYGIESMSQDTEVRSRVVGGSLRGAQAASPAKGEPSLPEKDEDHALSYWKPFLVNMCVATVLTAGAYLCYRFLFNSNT

PTP1B [3] = target: T2, PTP1B; assay: human proteome high-throughput array, βA3/A1-crystallin binding partners; set-up: purchased CDI Laboratories, Inc; conditions: human proteome high-throughput array (CDI Laboratories)
PTP1B [4] = target: T2, PTP1B; assay: pull-down assay; type: binding
NOD-SCID mice [5] = assay: sub-retinal injection in NOD-SCID mice, OCT; type: in vivo, mouse
Source text: (§1) NOD-SCID mice (NOD.CB17-Prkdescid/J, Jackson Laboratories, USA, male, 4-5 weeks old) were used for the study. A large sample size, n=10, was taken to nullify any experimental anomaly. Mice were anaesthetized and sub-retinal injections of neutrophils from different experimental groups or recombinant LCN-2 protein were given as described previously (Maruotti et al., Proc. Natl. Acad. Sci. USA., 112: 10950-10955 (2015)). Seven days after treatment, the NOD-SCID mice were anaesthetized by intraperitoneal injection of a ketamine and xylazine mixture and then subjected to Fundus imaging along with OCT analysis using the Bioptigen Envisu R2210 system. OCT images were analyzed on optical sections (100 sections per retina) from each eye ranging from −2.0 to +2.0 mm with respect to the optic nerve head (ONH) using the FIJI-ImageJ (NIH) plugin provided with the instrument along with Diver 2.4 software (Bioptigen). After the experiment, the animals were euthanized with CO2 gas and the eyes were harvested for further experiments. […]

Dab2 = target: T3, Dab2 (Homo sapiens, UniProt P98082); assay: HuProt human proteome microarray, LCN-2 binding partners; conditions: recombinant LCN-2 probed at 1 μg/mL, Z-score cutoff 6
T3 construct: purchased CDI NextGen Proteomics, MD, USA HuProt v3.1
T3 sequence (P98082 1-770): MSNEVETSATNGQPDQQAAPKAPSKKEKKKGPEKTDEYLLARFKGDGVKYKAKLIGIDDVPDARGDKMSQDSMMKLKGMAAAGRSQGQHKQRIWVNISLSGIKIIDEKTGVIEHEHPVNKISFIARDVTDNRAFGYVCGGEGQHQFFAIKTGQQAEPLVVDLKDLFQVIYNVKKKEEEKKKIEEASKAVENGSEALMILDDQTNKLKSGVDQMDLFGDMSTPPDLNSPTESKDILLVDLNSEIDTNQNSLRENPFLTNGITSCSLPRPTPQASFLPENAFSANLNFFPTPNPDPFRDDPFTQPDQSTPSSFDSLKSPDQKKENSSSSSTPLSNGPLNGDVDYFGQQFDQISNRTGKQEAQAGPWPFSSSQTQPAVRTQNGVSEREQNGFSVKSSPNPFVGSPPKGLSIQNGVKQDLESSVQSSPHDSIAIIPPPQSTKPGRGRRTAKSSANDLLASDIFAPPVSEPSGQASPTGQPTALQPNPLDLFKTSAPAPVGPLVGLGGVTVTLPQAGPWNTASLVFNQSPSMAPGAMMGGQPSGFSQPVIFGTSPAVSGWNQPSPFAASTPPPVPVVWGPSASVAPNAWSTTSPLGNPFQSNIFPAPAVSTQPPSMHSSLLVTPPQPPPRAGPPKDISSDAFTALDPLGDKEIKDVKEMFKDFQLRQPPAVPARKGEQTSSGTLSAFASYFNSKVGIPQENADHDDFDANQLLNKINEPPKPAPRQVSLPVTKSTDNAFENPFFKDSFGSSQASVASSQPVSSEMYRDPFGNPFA
Experimental: The human proteome microarray 2.0 analysis was performed as a paid service from CDI NextGen Proteomics, MD, USA. Recombinant LCN-2 was analyzed for protein-protein interaction profiling on the HuProt™ v3.1 human proteome array and the sample was probed on array plates at 1 μg/mL, with data analyzed using GenePix software. Hit identification was assessed as the ratio of median value of the foreground to the median of the surrounding background for each protein probe on the microarray, followed by normalization to the median value of all neighboring probes within the […] window size and represented as the significance of the probe binding signal difference from random noise (Z-Score). The cutoff Z-score was 6 in this study for the triplicate analysis; only protein interactions with a Z-score above 6 were considered.
The above-described observations prompted the further investigation of the possible molecular mechanisms by which neutrophils infiltrate into the retina and thereby contribute to the pathogenesis of AMD. It has previously been shown that LCN-2 regulates neutrophil chemotaxis and cell migration in cancer cells (Shao et al., J. Invest. Dermatol., 136, 1418-1428 (2016), and Du et al., Biochim. Biophys. Acta, 1853: 2240-2250 (2015)). […]

NOD-SCID mice [6] = assay: retinal sections of injected NOD-SCID mice: hematoxylin-eosin staining and immunofluorescence; type: in vivo, mouse
Experimental: Freshly enucleated eyes were fixed in 2% paraformaldehyde (PFA) for 10 min and then the anterior parts (cornea, lens, and attached iris pigmented epithelium) were removed. The resulting posterior eyecups were fixed in 2% PFA for 1 h at room temperature either for cryosections or RPE/retina flat mount. For cryosections, the eyecups were dehydrated through gradient sucrose solutions and embedded in OCT and for RPE/retina flatmounts, tissues were removed after the eyecup was quartered like a petaloid structure. The resulting eyecup was further cut radially into eight pieces from the optic nerve head to the periphery. Immunostaining on human/mouse retina sections or on retina/RPE flatmounts were performed by using appropriate primary antibody (1:100) and incubated at 4° C. overnight. The RPE/retina flatmounts or human or mouse retina sections were washed with 1×TBS thrice and then stained with appropriate secondary antibodies (1:300) with 1 μg/mL DAPI (Sigma Aldrich, USA) in the dark at room temperature for 2 h. The tissue sections or flatmounts were washed 6 times with 1×TBS. The tissues were mounted on a cover slip with DAKO mounting agent and then visualized under a confocal microscope (Zeiss LSM710, Switzerland).
as §1, with “Seven days after treatment, the NOD-SCID mice were anaesthetized by intraperitoneal injection of a ketamine and xylazine mixture and then subjected to Fundus imaging along with OCT analysis using the Bioptigen Envisu R2210 system.” left out, “(Bioptigen).” for “(Bioptigen). After the experiment, the animals were euthanized with CO2 gas and the eyes were harvested for further experiments.”

Molecule: PTP1B (pull-down assay and enzyme kinetics)
- Lineweaver Burk plots of PTP activity (Km and Vmax) (βA3/A1-crystallin): Cryba1 treatment decreases the Km and Vmax of PTP activity

Molecule: CC(C)[C@@H](CC[C@@H](C)[C@H]1CC[C@H]2[C@@H]3[C@H](O)C[C@H]4C[C@@H](NCCCNCCCCNCCCN)CC[C@]4(C)[C@H]3CC[C@]12C)OS(=O)(=O)O [MSI-1436]
- retinal function (ERG) (diabetic Nuc1 rats): rescues retinal function abnormality

B1: βA3/A1-crystallin: two closely related polypeptides encoded by Cryba1, produced by two different translational start sites; biological inhibitor binding PTP1B (protein)
chain: METQTVQRELETLPTTKMAQTNPMPGSMGPWKITIYDQENFQGKRMEFTSSCPNVSERSFDNVRSLKVECGAWIGYEHTSFCGQQFILERGEYPRWDAWSGSNAYHIERLMSFRPICSANHKESKITIFEKENFIGRQWEICDDYPSLQAMGWFNNEVGSMKIQCGAWVCYQYPGYRGYQYILECDHHGGDYKHWREWGTHAQTSQIQSIRRIQQ
- binding partner by co-immunoprecipitation (PTP1B [1]): PTP1B was a binding partner
- Km of PTP activity (PTP1B [2]): decreases
- Vmax of PTP activity (PTP1B [2]): decreases
- mode of PTP1B inhibition (PTP1B [2]): uncompetitive inhibitor of PTP1B
- interaction with PTP1B (PTP1B [3]): interact with PTP1B
- binding to PTP1B (PTP1B [4]): bound to PTP1B

B2: recombinant LCN-2: recombinant Lipocalin-2 protein, full length LCN-2 cDNA expressed in E. coli (protein)
chain: QDSTQNLIPAPSLLTVPLQPDFRSDQFRGRWYVVGLAGNAVQKKTEGSFTMYSTIYELQENNSYNVTSILVRDQDQGCRYWIRTFVPSSRAGQFTLGNMHRYPQVQSYNVQVATTDYNQFAMVFFRKTSENKQYFKITLYGRTKELSPELKERFTRFAKSLGLKDDNIIFSVPTDQCIDN
- OCT retinal structure after injection of WT neutrophils pre-treated with the substance (NOD-SCID mice [5]; NOD-SCID mice injected subretinally, IFNλ 200 U/mL, conditioned media 1:1 diluted, LCN-2 10 pg/mL, FIG. 4(iii)-(v)): apparent changes in the ONL and INL layers (asterisks), concomitant with severe loss of RPE and IS+OS layer
- OCT: alterations of retinal layers (NOD-SCID mice [5]; NOD-SCID mice, sub-retinal injection, after 7 days): alterations in the RPE and photoreceptor (inner and outer segments) layers
- interaction with Dab2 (Dab2): interact with Dab2
- hematoxylin-eosin staining of retinal sections (NOD-SCID mice [6]; NOD-SCID mice, relative to vehicle control or WT neutrophil injected mice): degenerative changes in the outer nuclear layer (ONL) along with photoreceptor layer
- thickness of retinal layers from sections by spider plot (NOD-SCID mice [6]; NOD-SCID mice, relative to vehicle or WT neutrophil-treated groups): severe loss or thinning of IS/OS and RPE layers
- rhodopsin and RPE 65 staining (photoreceptor and RPE cell loss) (NOD-SCID mice [6]; immunofluorescence, retina of NOD-SCID mice, with respect to controls): reduced staining
